Earlier results as cited in PMC3925188.
Values joined by “and” are separate entries in the source; they are usually repeats but may differ in a detail not shown here. Identical values can stand only once.

Biological target: Histone H3K4me3 H3K4me3 (Homo sapiens) (UniProt P68431)

KMT2A PHD3, sequence (Q03164 1566-1627): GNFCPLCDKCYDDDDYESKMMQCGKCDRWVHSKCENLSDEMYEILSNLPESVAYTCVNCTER

Kd: 30 µM and 19 µM and 4 µM
Substance: KMT2A PHD3 (from UniProt Q03164)
